Experimental data from publication PMC7891125 (Cell, 2021).

B1: Fab 45 (Fab, V domains shown)
VH: QVQLVESGGGVVQPGRSLRLSCAASGFTFSTYAMHWVRQAPGKGLEWVAVLSYDGSNKYYADSVKGRFTISRDNSKNTLYLQMNSLRAEDTAVYYCAKGGSYAYYYYMDVWGKGTTVTVSS
VL: not shown
B2: Fab 269 (Fab, V domains shown)
VH: QVQLVESGGGLIQPGGSLRLSCAASGLTVNRNYMSWIRQAPGKGLEWVSVIYSGGSTFYADSVKGRFTISRDNSKNTLSLQMNSLRAEDTAIYYCARDFYEGSFDIWGQGTMVTVSS
VL: AIQLTQSPSFLSASIGDRVTITCRASQGISSYLAWYQQKPGKAPKLLIYAASTLQSGVPSRFSGSGSGTEFTLTISSLQPEDFASYYCQQLNSYPAPVFGPGTKVDIK
B3: Fab 40 (Fab, V domains shown)
VH: QVQLVESGGGLVQPGGSLRLSCAVSGFTVSRNYMSWVRQAPGKGLEWVSLIYSGGSTFYADSVKGRFTISRDNSKNTLYLQMNSLRAEDTAVYYCARDLFHRSGYHDYWGQGTLVTVSS
VL: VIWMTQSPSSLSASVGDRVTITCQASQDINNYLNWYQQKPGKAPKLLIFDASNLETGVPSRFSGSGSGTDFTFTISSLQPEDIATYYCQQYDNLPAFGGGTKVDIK
notes: also called 40 Fab
B4: mAb 40 (IgG) (antibody, V domains shown)
VH: B3 VH
VL: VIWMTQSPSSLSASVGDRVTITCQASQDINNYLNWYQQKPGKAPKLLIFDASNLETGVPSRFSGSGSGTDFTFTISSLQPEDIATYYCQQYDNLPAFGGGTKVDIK
notes: IgG1
B5: mAb 88 (IgG) (antibody, V domains shown)
VH: QLQLQESGPGLVKPSQTLSLTCTVSGGSISSGSYNWTWIRQPAGKGLEWIGRIYNSGSTNYNPSLKSRVTISVDTSKNQLSLKVRSVTAADTAVYYCARHCSGGTCYPKYYYGMDVWGQGTTVTVSS
VL: QSALTQPPSVSEAPRQRVTISCSGSSSNIGNNAVNWYQQFPGKAPKLLIYYDDLLPSGVSDRFSGSKSGTSASLAISGVQSEDEADYYCAAWDDSLNVVVFGGGTKLTVL
notes: IgG1
B6: mAb 150 (IgG) (antibody, V domains shown)
VH: QVQLVESGGGLIQPGGSLRLSCAASGVTVSSNYMSWVRQAPGKGLEWVSIIYSGGTTYYADSVKGRFTISRDSSMNTLYLQMNSLRAEDTAVYYCARDLMVYGIDVWGQGTTVTVSS
VL: EIVMTQSPSSLSASVGDRVTITCRASQGISSYLAWYQQKPGKAPKLLIYAASTLQSGVPSRFSGSGSGTDFTLTISSLQPEDFATYYCQQLDSYPPGYTFGQGTKVDIK
notes: IgG1
B7: mAb 158 (IgG) (antibody, V domains shown)
VH: EVQLLESGGDLIQPGGSLRLSCAASGVTVSSNYMSWVRQAPGKGLEWVSIIYPGGSTFYADSVKGRFTISRDNSKNTLYLQMHSLRAEDTAVYYCARDLGSGDMDVWGKGTTVTVSS
VL: DIVMTQSPSFLSASVGDRVTITCRASQGISSYLAWYQQKPGKAPKLLIQAASTLQSGVPSRFSGSGSGTEFTLTISSLQPEDFATYYCQQLNSYRYTFGQGTKVEIK
notes: IgG1
B8: mAb 159 (IgG) (antibody, V domains shown)
VH: EVQLVESGGGVVQPGRSLRLSCAASGFTFSSYGMHWVRQAPGKGLEWVALISYDGGNRYYADSVKGRFTISRDNSKNTLYLQMNRLRAEDTAMYYCAKDRDDGWDWYYFMDVWGKGTTVTVSS
VL: DIQLTQSPGTLSLSPGERATLSCRASQSISGNYLAWYQHKPGQAPRLLIYGASTRATGIPDRFSGSGSGTDFTLTISRLEPEDFAVYYCQQYGSSYTFGQGTKVEIK
notes: IgG1; also called 159 (anti-spike); IgG159
B9: Fab 159 (Fab, V domains shown)
VH: B8 VH
VL: B8 VL
notes: also called 159 Fab
B10: mAb 316 (IgG) (antibody, V domains shown)
VH: not shown
VL: QAVLTQPPSASGSPGQSVTISCTGTSSDVGGYNYVSWYQQHPGKAPKLMIYEVSKRPSGVPDRFSGSKSGNTASLTVSGLQAEDEADYYCSSYAGSNHWVFGGGTKLTVL
notes: IgG1

biological target: His-tagged SARS-CoV-2 RBD (Severe acute respiratory syndrome …, UniProt P0DTC2); experiment: BLI; conditions: both partners purified

First: B1
Second: B2
The Kd of the first is 2.7-fold higher: 5.9 nM for the first, 2.2 nM for the second. The second binds more tightly here.

B1 and B2 are within 1.5-fold of each other in koff: 0.00046 s⁻¹ for the first, 0.00039 s⁻¹ for the second.

First: B1
Second: B2
The kon of the first is 2.3-fold lower: 78000 M⁻¹ s⁻¹ for the first, 180000 M⁻¹ s⁻¹ for the second.

biological target: T1, SARS-CoV-2 spike on intact virus (SARS-CoV-2/human/AUS/VIC01/2020) (SARS-CoV-2, isolate human/AUS/VIC01/2020); experiment: cell-based or functional assay; conditions: not given

B3 was tested, and the “Table S7: Neutralization IC50 (nM), FRNT of authentic SARS-CoV-2, Fab” value was 45.7 nM.

biological target: T1, SARS-CoV-2 spike on intact virus …; experiment: ELISA; whole virus ELISA: SARS-CoV-2 virus captured on plates coated with mouse anti-spike mAb31, serial dilutions of IgG or Fab, ALP anti-human IgG (Fab-specific); Kd = concentration at half-maximal binding by nonlinear regression; conditions: one partner purified

Compared with B3, B4 is 3.7-fold lower in Kd: 1.23 nM for the first, 0.33 nM for the second. The second binds more tightly here.

B5 and B6 are within 1.5-fold of each other in Kd: 0.25 nM for the first, 0.24 nM for the second.

First: B7
Second: B8
The Kd of the first is 2.6-fold higher: 0.5 nM for the first, 0.19 nM for the second. The second binds more tightly here.

Going from B9 to B10, the Kd falls from 0.29 nM to 0.13 nM (2.2-fold).
